Paper PMC3985474
Like-named read-outs stand apart in the source and are kept apart here.

How the values were obtained:
Assay in all cases: AUC
Bac-Cys-ELP1 [1] = target: Bac-Cys-ELP1
Bac-Cys-ELP1 [2] = target: Bac-Cys-ELP1; remark: listed apart in the source
SynB1-Cys-ELP1 [3] = target: SynB1-Cys-ELP1
SynB1-Cys-ELP1 [4] = target: SynB1-Cys-ELP1; remark: listed apart in the source

Substance	Ka (Bac-Cys-ELP1 [1])	Ka (Bac-Cys-ELP1 [2])	Ka (SynB1-Cys-ELP1 [3])	Ka (SynB1-Cys-ELP1 [4])
Bac-Cys-ELP1	1290 M⁻¹	552 M⁻¹	–	–
SynB1-Cys-ELP1	–	–	1480 M⁻¹	597 M⁻¹
